Laboratory results taken from US8211649B2, “Methods of diagnosing and prognosing hodgkin's lymphoma” (Human Genome Sciences, Inc., priority 2006, dated 2012).
Read-outs that look alike come from different tables or passages of the source.

Columns and labels:
human tonsillar B cells = experiment: B lymphocyte co-stimulatory proliferation assay (3H-thymidine); assay type: cell-based; details: after biotinylation
Description: Purified recombinant Neutrokine-alpha (“rNeutrokine-alpha”) was assessed for its ability to induce activation, proliferation, differentiation or death in numerous cell based assays involving B cells, T cells, monocytes, NK cells, hematopoietic progenitors, and a variety of cell types of endothelial and epithelial origin. […] A dose-dependent response is readily observed as the amount of crosslinking agent increases in the presence of a fixed concentration of either 1L2 or rNeutrokine-alpha.
B lymphocyte proliferation assay. […] The resulting cell population was routinely greater than 95% B cells as assessed by expression of CD19 and CD20. […] Proliferation was quantitated by a 20 h pulse (1 microCi/well) of ^3H-thymidine (6.7 Ci/mM) beginning 72 h post factor addition.
In Vitro assay—Purified Neutrokine-alpha and/or Neutrokine-alphaSV protein, or truncated forms thereof, is assessed for its ability to induce activation, proliferation, differentiation or inhibition and/or death in B-cell populations and their precursors. […] Novel synergizing agents can be readily identified using this assay. […] The resulting cell population is greater than 95% B cells as assessed by expression of CD45R(B220). […] Proliferation or inhibition is quantitated by a 20 h pulse (1 uCi/well) with ^3H-thymidine (6.7 Ci/mM) beginning 72 h post factor addition. […]

[1] = test system: Neutrokine-alpha receptor; experiment: FACS binding of biotinylated Neutrokine-alpha to blood cells and cell lines; design: species or system human
Source text: In an attempt to correlate the specific biological activity on B cells with receptor expression, purified Neutrokine-alpha was biotinylated. […] In contrast, biotinylated Neutrokine-alpha bound peripheral CD20^+ B cells. Receptor expression was also detected on the B cell tumor lines REH, ARH-77, Raji, Namalwa, RPMI 8226, and IM-9 but not any of the myeloid-derived lines tested including THP-1, HL-60, K-562, and U-937. Similar results were also obtained using a biologically active FLAG-tagged Neutrokine-alpha protein instead of the chemically modified biotin-Neutrokine-alpha. […] It remains to be shown whether cellular activation may induce expression of Neutrokine-alpha receptors on peripheral blood cells, other normal cell types or established cell lines.
(§1) FACS analysis. Neutrokine-alpha expression was assessed on human cell lines, freshly isolated normal peripheral blood nucleated cells, and in vitro cultured monocytes, a mouse anti-human Neutrokine-alpha mAb 2E5 (IgG1) followed by PE-conjugated F(ab′)2 goat antibody to mouse IgG (CALTAG Laboratories, Burlingame, Calif.). Cells were analyzed using a FACScan (Becton Dickinson Immunocytometry Systems, San Jose, Calif.) with propidium iodide to exclude dead cells. Neutrokine-alpha binding was assessed using rNeutrokine-alpha biotinylated with a N-hydroxysuccinimidobiotin reagent (Pierce, Rockford, Ill.) followed by PE-conjugated streptavidin (Dako Corp, Glostrup, Denmark).

HIV = details: greater activity; cited from earlier work
[2] = test system: Neutrokine-alpha expression on monocytes; experiment: FACS of Neutrokine-alpha cell surface expression with mAb 2E5; assay type: cell-based, human; details: IFN-gamma 100 U/mL for three days
Description: The expression profile of Neutrokine-alpha was assessed by Northern blot (FIG. 7B) and flow cytometric analyses (Table V and FIGS. 8A, 8B and 8C). Neutrokine-alpha is encoded by a single 2.6 kb mRNA found at high levels in peripheral blood leukocytes, spleen, lymph node and bone marrow. Lower expression levels were detected in placenta, heart, lung, fetal liver, thymus and pancreas. Among a panel of cell lines, Neutrokine-alpha mRNA was detected in HL-60 and […], but not in Raji, HeLa, or MOLT-4 cells. […] A concomitant increase in Neutrokine-alpha-specific mRNA was also detected (FIG. 8C). By contrast, Neutrokine-alpha was not expressed on freshly isolated peripheral blood granulocytes, T cells, B cells, or NK cells.
as §1

[3] = test system: Neutrokine-alpha expression in monocytes and macrophages; experiment: cytokine effect on Neutrokine-alpha expression and release in monocytes and macrophages; assay type: cell-based; details: single cytokine, in vitro
Neutrokine-alpha protein [4] = biological target: T1, Neutrokine-alpha protein (Homo sapiens, UniProt Q9Y275)
T1 sequence (Q9Y275 134-285 limits assumed): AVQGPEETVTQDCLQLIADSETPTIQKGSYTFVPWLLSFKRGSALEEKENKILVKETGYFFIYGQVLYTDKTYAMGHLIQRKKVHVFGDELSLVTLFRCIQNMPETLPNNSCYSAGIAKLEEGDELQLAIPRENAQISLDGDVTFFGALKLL
Description: A Phase 2, multi-center, randomized, double-blind, placebo-controlled study was performed in subjects with RA. Subjects were randomized into 4 treatment groups (placebo, 1 mg/kg, 4 mg/kg and 10 mg/kg).
An ACR20 response is defined as at least a 20% reduction in tender joint count and swollen joint count, in addition to an improvement of at least 20% on three of five other assessments of symptoms or disease manifestations (i.e., patient pain assessment, patient global assessment, physician global assessment, patient self-assessed disability, acute-phase reactant [ESR or CRP]).

Neutrokine-alpha protein [5] = biological target: T1, Neutrokine-alpha protein; remark: listed apart in the source
Description: 449 subjects with SLE by ACR criteria (Tan et al., Arthritis Rheum. 25:1271-7, (1982); and Hochberg et al., Arthritis Rheum. 40:1725, (1997)) and SELENA SLEDAI score ≧4 at screening were dosed.

[6] = design: species or system BALB/c mice; details: mouse
Description: Neutrokine-alpha was radiolabeled with ^125I and injected intravenously into BALB/c mice. Three doses and 4 timepoints over a 24-hr period were studied. Biodistribution was measured by direct counting of the radioactivity in dissected whole organs or tissues and by whole body quantitative autoradiography (QAR).

B cells = experiment: Neutrokine-alpha mediated B cell proliferation, enhancement by cytokines; assay type: cell-based; details: observed by the inventors
[7] = week 52, all treatment groups combined, reduction

For “biotinylated Neutrokine-alpha: purified Neutrokine-alpha biotinylated with N-hydroxysuccinimidobiotin reagent”, the “biological function in the standard B cell proliferation assays” value (human tonsillar B cells) was “retained biological function”, the “receptor expression (binding of biotinylated Neutrokine-alpha)” value ([1]; B cell tumor lines REH, ARH-77, Raji, Namalwa, RPMI 8226, IM-9) was “detected” and the “binding of biotinylated Neutrokine-alpha” value ([1]; T cells, monocytes, NK cells and granulocytes of human peripheral blood) was “undetectable”. For the same molecule, the “receptor expression (binding of biotinylated Neutrokine-alpha)” value ([1]; myeloid-derived lines THP-1, HL-60, K-562, U-937) was “not any” and the “binding of biotinylated Neutrokine-alpha” value ([1]; peripheral CD20+ B cells) was “bound”.

In the case of `CC[C@H]1C(=O)Nc2ccc(F)cc2N1C(=O)OC(C)C` [GW-420867X], the “activity relative to HBY097” value (HIV) is given as 25 fold.

For `Nc1nc(=O)n([C@@H]2CS[C@H](CO)O2)cc1F` [COVIRACIL, emtricitabine], the “activity in vitro relative to lamivudine (3TC)” value (HIV) is listed as 3- to 10 fold.

In the case of IFN-gamma: cytokine, the “upregulation of Neutrokine-alpha expression on resting monocytes” value [2] is reported as “approximately 4 fold” and the “cell surface expression of Neutrokine-alpha in monocytes and macrophages” value (“cell surface expression” for short) [3] is reported as “enhance”.

For `C[C@H](Sc1nc(N)cc(Cl)n1)c1cc2ccoc2cn1` [PNU-142721], the “activity relative to delavirdine” value (HIV) is given as 20- to 50 fold.

With “belimumab: an antibody that neutralizes Neutrokine-alpha protein” the “ACR20 response versus placebo” value (Neutrokine-alpha protein [4]; 1 mg/kg treatment group, 24 weeks (p=0.0097)) was “statistically superior”, the ACR20 response (Neutrokine-alpha protein [4]; Week 48, extension period) was “approximately 40%” and the “ACR20 response versus placebo” value (Neutrokine-alpha protein [4]; all active treatment groups combined, 24 weeks (p=0.0213)) was “statistically superior”. For the same molecule, the “CD20+ B-cells, naïve B-cells, activated B-cells and RF” value (Neutrokine-alpha protein [4]; biological activity) was “statistically significant reductions”, the “decrease of serum IgG” value (Neutrokine-alpha protein [5]; belimumab-treated arms) was 10% and the PGA (Neutrokine-alpha protein [5]; by week 16 through week 52, all active vs. placebo) was “improved”. For the same molecule, the “plasma and memory cell populations” value (Neutrokine-alpha protein [5]; in vivo) was “preserved”, the “primary efficacy endpoints (percent reduction in SS score at week 24, time to flare over 52 weeks)” value (Neutrokine-alpha protein [5]; in vivo) was “did not reach statistical significance” and the “safety, including adverse events, AE severity, infections or lab toxicity vs. placebo” value (Neutrokine-alpha protein [5]; in vivo) was “No clinically significant differences”. For the same molecule, the “severe infusion reaction events” value (Neutrokine-alpha protein [5]; in vivo) was 1, the subjects with pleurisy (Neutrokine-alpha protein [5]; in vivo) was 3.3% and the “increase of C4” value (Neutrokine-alpha protein [5]; low baseline C4, belimumab-treated arms) was 33%. The “anti-dsDNA+ subjects converted to negative” value (Neutrokine-alpha protein [5]; week 52) was 14.5%, the SS score (Neutrokine-alpha protein [5]; week 52, ANA+ subjects) was “significantly reduced” and the “median percent change in CD20+ B cells” value (Neutrokine-alpha protein [5]; [7]) was 54%. The “median percent change in plasmacytoid B cells (CD20+/CD138+)” value (Neutrokine-alpha protein [5]; [7]) was 62%, the “reduction of anti-dsDNA Ab” value (Neutrokine-alpha protein [5]; week 52, baseline positive) was 30% and the “median percent change in activated B-cells (CD20+/CD69+ B cells)” value (Neutrokine-alpha protein [5]; week 52, reduction) was 70%. For the same molecule, the SLE flares (Neutrokine-alpha protein [5]; weeks 24-52 using a 24 week baseline) was “decreased”.

For “radiolabeled Neutrokine-alpha: Neutrokine-alpha (amino acids 134-285 of SEQ ID NO:2) radiolabeled with 125I”, the “in vivo targeting specificity” value [6] was “high in vivo targeting specificity for lymphoid tissues”, the “QAR signal in liver and kidney” value ([6]; in vivo) was “no longer had observable levels” and the “QAR signal in spleen, lymph nodes and GALT” value ([6]; in vivo) was “still strongly positive”. For the same molecule, the “concentration of radioactivity in kidney” value ([6]; in vivo, iv, 0.01 mg/kg, 3 h) was ~5 % injected dose (ID)/g, the “concentration of radioactivity in liver” value ([6]; in vivo, iv, 0.01 mg/kg, 3 h) was ~5 % injected dose (ID)/g and the “concentration of radioactivity in lymph node” value ([6]; in vivo, iv, 0.01 mg/kg, 3 h) was 23 % injected dose (ID)/g. The “concentration of radioactivity in spleen” value ([6]; in vivo, iv, 0.01 mg/kg, 3 h) was 63 % injected dose (ID)/g.

B1: IL-4: cytokine (protein, UniProt P05112 25-153, looked up)
Interleukin-4: HKCDITLQEIIKTLNSLTEQKTLCTELTVTDIFAASKNTTEKETFCRAATVLRQFYSHHEKDTRCLGATAQQFHRHKQLIRFLKRLDRNLWGLAGLNSCPVKEANQSTLENFLERLKTIMREKYSKCSS
For B1, the “cell surface expression” value [3] was “decreased” and the “effect on Neutrokine-alpha mediated B cell proliferation” value (B cells) was “enhance”.

B2: IL-10: cytokine (protein, UniProt P22301 19-178, looked up)
Interleukin-10: SPGQGTQSENSCTHFPGNLPNMLRDLRDAFSRVKTFFQMKDQLDNLLLKESLLEDFKGYLGCQALSEMIQFYLEEVMPQAENQDPDIKAHVNSLGENLKTLRLRLRRCHRFLPCENKSKAVEQVKNAFNKLQEKGIYKAMSEFDIFINYIEAYMTMKIRN
For B2, the “cell surface expression” value [3] was “enhance” and the “effect on Neutrokine-alpha mediated B cell proliferation” value (B cells) was “enhance”.
